Data set [1] concerns the target T1, bFGF (Example 20) (UniProt P09038 P09038:143-288). The data set can be described thus: truncated ligand from deletion analysis.
The target of data set [2] is T2, KGF (hKGF) (Homo sapiens, UniProt P21781 P21781:32-194).
T2 sequence: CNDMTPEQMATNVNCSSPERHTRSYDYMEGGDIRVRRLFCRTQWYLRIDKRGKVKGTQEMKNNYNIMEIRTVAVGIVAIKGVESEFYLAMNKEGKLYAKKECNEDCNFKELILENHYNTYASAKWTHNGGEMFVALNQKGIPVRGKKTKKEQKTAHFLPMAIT
The data set can be described thus: competition; PC-3 cells. Conditions: tags: Upstate Biotechnology. The method, then: (§1) PC-3 cells were plated in 24-well plates at about 10⁵ cells per well. Following growth for […], the cells were serum starved for 24 hours, washed two times with 500 μl of cold DPBS, and then incubated with 500 μl binding buffer (BB1; DPBS, 0.5 mM MgCl₂, 0.2% BSA. 0.02% sodium azide) containing various concentrations of ¹²⁵I-labeled KGF ranging from 0 to 0.8 nM. Following 3-3.5 hour incubation at 4° C., the binding mixes were aspirated and the well-adhered cells were washed two times with 1 ml BB1 and once with 1 ml BB1 supplemented with 0.5M NaCl. The remaining bound labeled hKGF was solubilized in 600 μl 0.5% SDS/0.1M NaOH and counted in a gamma counter (Beckmann). Nonspecific binding was determined in the presence of 100 fold molar excess of unlabeled hKGF. For competition assays, the labeled hKGF was kept constant at […], and varying concentrations of competitor molecules were included in the binding reactions ranging from 0-1,000 nM. Binding curves were fitted to the equation: […]
(§2) A subset of these ligands was tested on the NIH3T3/FGFR-2. In determining the Ki values, it was assumed that 3T3 cells have 500,000 binding sites per cell and PC-3 cells have 5,000 binding sites per cell.

Data set [3] deals with T2, KGF (hKGF). The data set can be described thus: filter; biphasic, high affinity 28%. Conditions: tags: Upstate Biotechnology; label: 32P.
In data set [4] the target is T2, KGF (hKGF). The data set can be described thus: filter; equimolar halves; high -, low -. The following applies: tags: Upstate Biotechnology. How it is done: In an effort to identify shorter KGF ligands that retained binding, the binding activity of various deletions of the shortest truncate of ligand 14F, namely 14F3′T were tested. Deletions were tested in all the structural elements of the proposed pseudoknot structure. RNA transcripts containing 2′F pyrimidines and 2′OH purines were obtained by in vitro transcription using synthetic DNA templates. The activity of each ligand is shown by scoring for both the high (H) and low (L) affinity component of the 14F3′T binding curve with +(active) or −(not active). Truncates T35 and T36 represent two complementary halves of 14F3′T molecule and were additionally tested as an equimolar mixture. The structural elements of the proposed pseudoknot structure are separated by (1) and are indicated by symbols S1 (stem 1), S2 (stem 2), L1 (loop 1) and L3 (loop 3). The proposed pseudoknot structure for 14F3′T is a non-H-type pseudoknot and lacks L2 (loop 2). The complementary sequences forming S1 (S1 and S1′) and S2 (S2 and S2′) are marked by single and double underlines respectfully. In the tabulated sequences, deleted bases were replaced with periods (.). […] Deletions in loop 3 (L3), however, were tolerated as long as one copy of the RRYY box remained intact. The shortest ligand that retained activity is T22 which is a 43-mer. […]

In data set [5] the target is T3, PDGF-AB (Homo sapiens, UniProt P04085;P01127 P04085:87-211,P01127:82-190). As to the kind of experiment: filter; substitution pattern compatible with high affinity. The following applies: tags: R&D Systems, E. coli; chain copies: A/B chain dimer; three-way helix junction.
T3 sequence (P01127 82-190, chain 2 of 2, other chains not shown): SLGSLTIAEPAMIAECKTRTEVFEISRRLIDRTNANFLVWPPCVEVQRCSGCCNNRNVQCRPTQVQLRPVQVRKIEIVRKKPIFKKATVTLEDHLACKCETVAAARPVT
Data set [6] deals with T2, KGF (hKGF). As to the kind of experiment: competition; PC-3 cells; 2.7 nM on NIH3T3/FGFR-2; 92 pM Balb/MK. Conditions: tags: Upstate Biotechnology; pseudoknot. How it is done:
as §1, §2

Data set [7] concerns the target T2, KGF (hKGF). The data set can be described thus: filter; biphasic, high affinity 25-44%; text p221 gives 0.3-3 pM and 2-10 nM; PC-3 Ki 0.2 nM. The following applies: tags: Upstate Biotechnology; label: 32P; pseudoknot (predicted).
The target of another data set is PDGF-BB (Homo sapiens, UniProt P01127 P01127:82-190). As to the kind of experiment: competition; PDGF alpha-receptor PAE cells, 4 C; mitogenic half-maximal 2.5 nM. The following applies: tags: R&D Systems, E. coli; chain copies: B chain dimer; three-way helix junction.
PDGF-BB, sequence (P01127 82-190, one chain of several): as the sequence (P01127 82-190, chain 2 of 2, other chains not shown) above
Data set [8] deals with T2, KGF (hKGF). The data set can be described thus: filter; second value 8.70 nM. Conditions: tags: Upstate Biotechnology; label: 32P.
The target of data set [9] is T2, KGF (hKGF). The data set can be described thus: competition; PC-3 cells; 6.8 nM on NIH3T3/FGFR-2; 830 pM Balb/MK. Conditions: tags: Upstate Biotechnology; pseudoknot. How it is done:
as §1, §2

Data set [10] has as its target T2, KGF (hKGF). The data set can be described thus: filter; biphasic, high affinity 37%; Kd2 3.25 nM; PC-3 Ki 0.16 nM. The following applies: tags: Upstate Biotechnology; label: 32P; pseudoknot (predicted).
The target of data set [11] is T1, bFGF (Example 20). The data set can be described thus: parent SELEX ligand.
The target of data set [12] is T2, KGF (hKGF). As to the kind of experiment: filter; biphasic, high affinity 33%. The following applies: tags: Upstate Biotechnology; label: 32P.
The target in data set [13] is T4, TGFβ1 (Homo sapiens, UniProt P01137 P01137:279-390). As to the kind of experiment: filter; 3' boundary experiment. The following applies: tags: Genentech or R&D Systems; chain copies: 2.
T4 sequence (P01137 279-390, one chain of several): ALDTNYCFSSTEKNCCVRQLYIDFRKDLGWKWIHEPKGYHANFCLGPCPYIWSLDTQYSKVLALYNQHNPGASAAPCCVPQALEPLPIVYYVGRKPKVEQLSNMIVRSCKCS
The target of data set [14] is T2, KGF (hKGF). As to the kind of experiment: filter; biphasic, high affinity 43%; Kd2 2.55 nM. The following applies: tags: Upstate Biotechnology; label: 32P.
The target in data set [15] is T2, KGF (hKGF). The data set can be described thus: filter; DPBS, 37 C; PC-3 Ki […] nM. Conditions: tags: Upstate Biotechnology; label: 32P.
The target in data set [16] is T2, KGF (hKGF). As to the kind of experiment: competition; PC-3 cells; 10.6 nM partial on NIH3T3/FGFR-2. Conditions: tags: Upstate Biotechnology. The method, then: as §1, §2
Data set [17] deals with T3, PDGF-AB. As to the kind of experiment: efficient photo-crosslinking at 308 nm, to Phe84 of B chain. The following applies: tags: R&D Systems, E. coli; chain copies: A/B chain dimer.
Data set [18] addresses T4, TGFβ1. The data set can be described thus: filter; specificity control; random RNA 10.4 nM. The following applies: tags: Genentech; biotinylated version used in bead assay; chain copies: 2; label: 32P; pseudoknot (predicted).
Data set [19] deals with T5, KGF (rat) (Rattus norvegicus, UniProt Q02195 Q02195:32-194).
T5 sequence: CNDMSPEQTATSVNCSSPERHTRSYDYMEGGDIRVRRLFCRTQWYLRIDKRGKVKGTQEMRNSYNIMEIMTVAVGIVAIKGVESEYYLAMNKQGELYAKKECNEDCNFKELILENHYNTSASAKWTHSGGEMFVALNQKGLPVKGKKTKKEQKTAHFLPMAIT
The data set can be described thus: cell_activity; Balb/MK DNA synthesis. The following applies: tags: QED Advanced Research Technologies; pseudoknot.
Experimental: (§3) Balb/MK cells grown in Low Ca⁺⁺ EMEM with 10% FCS (dialyzed and heat inactivated) and 5 ng/ml rhEGF were trypsinized and resuspended in Low Ca⁺⁺ EMEM with 1% FCS (dialyzed and heat inactivated) and 0.5 ng/ml rhEGF and plated on 96 well fibronectin coated culture plates at 4-6×10⁴ cells per well in 100 μl total volume. Following overnight growth, the medium was replaced with Low Ca⁺⁺ EMEM without FCS or rhEGF and serum starved for about 30 hrs. […] Following over-night incubation, ³H-thymidine was added at 0.2 μCi/well and incubation continued for an additional 7-8 hrs. The extent of ³H-thymidine incorporation was determined by TCA precipitation and filtration through GFC filter disks.

Data set [20] deals with T5, KGF (rat). As to the kind of experiment: filter; high affinity component; Kd2 70.0 nM. The following applies: tags: QED Advanced Research Technologies; label: 32P; pseudoknot (predicted).
For data set [21], the target named is T3, PDGF-AB. The data set can be described thus: filter; specificity control; random RNA 22.0 nM. Conditions: tags: R&D Systems, E. coli; label: 32P; pseudoknot (predicted).
The target in the next data set is EGF (Homo sapiens, UniProt P01133 P01133:971-1023). The data set can be described thus: filter; specificity control; random RNA 2000 nM. The following applies: tags: Upstate Biotechnology; label: 32P; pseudoknot (predicted).
EGF, sequence (P01133 971-1023, one chain of several): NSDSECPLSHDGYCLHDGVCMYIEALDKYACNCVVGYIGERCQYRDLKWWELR
Data set [22] concerns the target T2, KGF (hKGF). As to the kind of experiment: cell_activity; Balb/MK mitogenic assay. Conditions: tags: Upstate Biotechnology; pseudoknot.
Experimental: as §3
Another data set concerns the target bFGF (Homo sapiens, UniProt P09038 P09038:143-288). The data set can be described thus: filter; specificity control; random RNA 0.0375 and 10.3 nM. The following applies: tags: R&D Systems; label: 32P; pseudoknot (predicted).

Usually IC50 stands for the midpoint of a concentration-inhibition curve. A low value points to greater potency in that assay. A word on the Kd: it is a measure of binding affinity in units of concentration. As a reminder, the Ki is a measure of affinity in units of concentration, obtained from inhibition or displacement. Read a low Ki as tighter binding.

T1 sequence (P09038 143-288, one chain of several): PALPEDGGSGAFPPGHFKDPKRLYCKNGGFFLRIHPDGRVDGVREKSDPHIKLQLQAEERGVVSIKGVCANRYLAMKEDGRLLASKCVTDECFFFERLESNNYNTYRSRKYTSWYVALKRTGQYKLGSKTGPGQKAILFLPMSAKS
bFGF, sequence (P09038 143-288, one chain of several): as above

B1: 21A-t (ssRNA)
RNA: GGUGUGUGGAAGACAGCGGGUGGUUC
modifications: 2'-NH2 pyrimidines
Take B1: the binding result with bFGF (Example 20) [1] is given as “binds”.

B2: 13F (ssRNA)
RNA: GGGAGGACGAUGCGGCACCUUAGACCUGUCCUCCAAGCGUGAGUUGCUGUGGCCCAGACGACUCGCCCGA
modifications: 2'-F pyrimidines
As to B2, the IC50 with KGF (hKGF) [2] came to 30 nM. Further, the affinity in the data set with KGF (hKGF) [3], expressed as Kd, was 0.03 nM.

B3: T35/T36 equimolar (ssRNA)
RNA 1: GGUGGUCUCCCAAUUCUAUUCUCCAUCGUAUC
RNA 2: GGGAGGACGAUG
modifications: 2'-F pyrimidines
With B3, in the data set with KGF (hKGF) [4], the binding result is on record as “no binding”.

B4: 36t 2'-OMe/2'-F (mixed)
mixed: CAGGCUACGGCACGTAGAGCAUCACCATGATCCUG
modifications: 2'-OMe C8,C11,C25,C26,G9,G10,G17,G19,G35,A12,A24,A27,U34; 2'-F U6,U22,C23,C32,C33; 3'-3' idT
Consider B4, for which the binding result in the data set with PDGF-AB [5] is “binds”.

B5: 14F (ssRNA)
RNA: GGGAGGACGAUGCGGUGGUCUCCCAAUUCUAAACUUUCUCCAUCGUAUCUGGGCCAGACGACUCGCCCGA
modifications: 2'-F pyrimidines
B5 showed an IC50 with KGF (hKGF) [2] (pseudoknot) of 10 nM. This molecule gave a Ki with KGF (hKGF) [6] of 0.2 nM. For the same molecule, in the data set with KGF (hKGF) [7], the equilibrium dissociation constant (Kd) is 0.0134 nM.

B6: 36t (ssDNA)
DNA: CACAGGCTACGGCACGTAGAGCATCACCATGATCCTGTGT
modifications: 3'-3' idT
For B6, the IC50 with PDGF-BB was around 1 nM.

B7: 20F (ssRNA)
RNA: GGGAGGACGAUGCGGAGUAUUCCAGCCUGGAUUCAUAGUCAGUGCUCUCCGUGCCCAGACGACUCGCCCGA
modifications: 2'-F pyrimidines
On to B7, for which binding with KGF (hKGF) [8] was characterised by a dissociation constant (Kd) of 2.05 nM.

B8: 6F (ssRNA)
RNA: GGGAGGACGAUGCGGGAUCCUUUGUGGGCUCUUGUUGACCCCCUCGUUGUCCCCCCCAGACGACUCGCCCGA
modifications: 2'-F pyrimidines
Molecule B8 gave an inhibition constant Ki with KGF (hKGF) [9] of 0.16 nM. Further, the equilibrium dissociation constant (Kd) with KGF (hKGF) [10] was 0.05 nM. This molecule also came in with an IC50 with KGF (hKGF) [2] (pseudoknot) of 4 nM.

B9: 21A (ssRNA)
RNA: GGGAGACAAGAAUAACGCUCAAGUAGACUAAUGUGUGGAAGACAGCGGGUGGUUCGACAGGAGGCUCACAACAGGC
modifications: 2'-NH2 pyrimidines
For B9, the binding result in the data set with bFGF (Example 20) [11] was “binds”.

B10: 15F (ssRNA)
RNA: GGGAGGACGAUGCGGUCAUGGUGUCUUUCCACAGCUCUUCCCAUGAUCGCCCGGCCAGACGACUCGCCCGA
modifications: 2'-F pyrimidines
On to B10, for which the equilibrium dissociation constant (Kd) with KGF (hKGF) [12] came out at 0.07 nM. Also, in the data set with KGF (hKGF) [2], the IC50 was found to be 20 nM.

B11: lib4-32 boundary (ssRNA)
RNA: GGGGGAGAACGCGGAUCCGGCAACCCCAGGCGCAUAGCUUCCGAGUAGACAGGCGGGAGGGGUGGAUGUGGCGUCACG
modifications: modified pyrimidines
For B11, the binding result with TGFβ1 [13] is “binds”.

B12: 26F (ssRNA)
RNA: GGGAGGACGAUGCGGUCAAGCUUAACAGUCUGGCAAUGGCCAUUAUGGCGCCCCAGACGACUCGCCCGA
modifications: 2'-F pyrimidines
On to B12, for which the Kd with KGF (hKGF) [14] is 0.23 nM.

B13: 14N (ssRNA)
RNA: GGGAGGACGAUGCGGUCCAGGGAUUGAAGUGUCGGGGUAGGAACAUAAAGGCGGCCAGACGACUCGCCCGA
modifications: 2'-NH2 pyrimidines
The molecule B13 came in with a Kd with KGF (hKGF) [15] of 0.44 nM. Further, the Ki with KGF (hKGF) [16] came out at 1.4 nM. In the data set with KGF (hKGF) [2], this molecule came in with a half-inhibitory concentration (IC50) of 6 nM.

B14: 20t-I4 (ssDNA)
DNA: TGGGAGGGCGCGTTCTTCGTGGTTACTTTTAGTCCCG
modifications: 5-iodo-dU at 24
Consider B14, for which the binding result in the data set with PDGF-AB [17] is “binds”.

B15: 14F3'T (ssRNA)
RNA: GGGAGGACGAUGCGGUGGUCUCCCAAUUCUAAACUUUCUCCAUCGUAUC
modifications: 2'-F pyrimidines
As to B15, the Kd with TGFβ1 [18] was 98 nM; with KGF (rat) [20], 0.0041 nM; with PDGF-AB [21] it was 50 nM; with EGF, 256 nM; in the data set with bFGF it was 10 nM. Besides, the inhibition constant Ki in the data set with KGF (rat) [19] amounted to 1.8 nM; in the data set with KGF (hKGF) [22] it was 0.034 nM.

(Values after US20030180744, “High affinity oligonucleotide ligands to growth factors” (GILEAD SCIENCES, INC., published 2003).)
